{
  "source": "paper PMC2573919",
  "about": "“The Desensitization Gating of the MthK K^+ Channel Is Governed by Its Cytoplasmic Amino Terminus” (PLoS Biology, 2008)",
  "biological_target": "Isolated RCK domain (M107-A336) of MthK, preparation for NMR (from pQE70-MthK) (Methanobacterium thermoautotrophicum, UniProt O27564 107-336)",
  "assay": "NMR titration; 700-MHz 1H NMR, 25 °C; isolated RCK titrated with synthetic peptide at [peptide]:[RCK] 0:1, 1:5, 1:2, 1:1 and 1:0; 20 mM Tris-HCl (pH 7.5), 150 mM KCl, 1 mM DTT; RCK concentrated to approximately 200 μM; disappearance of the peptide's His11 and Met1 peaks followed",
  "settings": "both partners purified",
  "note": "Where no end group is shown, it is not given here.",
  "data": [
    {"binder": "MVLVIEIIRKH-NH2 (MthK K+ channel of Methanobacterium thermoautotrophicum, N-terminal residues 1-11; source: synthetic peptide (Celtek Peptides))", "note": "[synthetic aa1–11 peptide]", "values": [
      {"measurement": "binding result", "value": "binds"}
    ]}
  ]
}
